# Patent US9931433B2, “Time-controlled glucose releasing hydrogels and applications thereof” (Centre National de la Recherche Scientifique (CNRS), priority 2014, dated 2018)
# Assay: Stability of the kit components after storage
# Type: physicochemical
# Settings: 14 days storage
# Source text: The mechanical properties (storage and loss moduli G′ and G″) are identical at D0, D7 or D21 storage.
# The activity of the enzyme AMG was preserved after 14 days storage allowing a long term storage of the kit components.
substance,measurement,value
"glucan 1,4 α-glucosidase [AMG]",activity of the enzyme after storage,preserved
